These are literature values, as cited in patent publication US20190351003A1, “METHODS FOR INHIBITING NONALCOHOLIC STEATOHEPATITIS, NONALCOHOLIC FATTY LIVER DISEASE, AND/OR DE NOVO LIPOGENESIS” (The Regents of the University of California, priority 2017, published 2019).

For the data set, the target named is T1, caspase-2 (Homo sapiens, UniProt P42575).
T1 sequence (P42575 1-452): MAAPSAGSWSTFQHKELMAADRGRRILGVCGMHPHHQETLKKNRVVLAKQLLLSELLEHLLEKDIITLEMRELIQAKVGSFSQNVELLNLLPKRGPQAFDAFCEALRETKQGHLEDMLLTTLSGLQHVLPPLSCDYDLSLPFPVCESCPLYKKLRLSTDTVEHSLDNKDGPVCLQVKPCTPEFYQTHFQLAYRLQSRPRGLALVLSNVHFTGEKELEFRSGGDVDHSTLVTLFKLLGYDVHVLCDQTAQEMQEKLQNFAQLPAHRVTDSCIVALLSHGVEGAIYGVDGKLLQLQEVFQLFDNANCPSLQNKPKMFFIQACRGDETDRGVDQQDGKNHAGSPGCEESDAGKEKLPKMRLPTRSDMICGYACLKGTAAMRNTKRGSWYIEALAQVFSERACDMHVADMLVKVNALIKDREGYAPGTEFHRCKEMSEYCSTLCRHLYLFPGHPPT
To be noted: cell-permeable peptide; fluoromethylketone derivative; cited from earlier work.

Where no end group is shown, it is not given here. The star is where a group is joined. CH2F = FC*

For the substance “VDVAD (VDVAD-CH2F) [available as a fluoromethylketone derivative]”, the “activity of caspase-2” value was “irreversibly inhibits”.
